Test results published in patent US20260234121A1, “DERIVATIVES, IMMUNOGENS, AND ANTIBODIES AND USE OF THE SAME IN DETECTION OF ECSTASY-CLASS COMPOUNDS” (Siemens Healthcare Diagnostics Inc., priority 2023, published 2026).
Residue numbers refer to the chain shown, from its start.

Tests used:
E1-OVA (55) = experiment: ELISA binding of hybridoma supernatant to E1-OVA (55) coated plates, without inhibitor; conditions: hybridoma supernatant mixed with PBS alone
Description: All ELISA steps were performed at rt. Wells of a Nunc Maxi-Sorp™ flat-bottom ELISA plates (ThermoFisher Scientific, Waltham, MA) were coated with 50 μL E1-OVA (55), E2-OVA (65), and E3-OVA (72) at a concentration of 1 μg/mL in PBS for 1 h. The plates were flicked dried and remaining binding sites were blocked with 200 μL per well of blocking solution (0.5% casein, 0.05% (v/v) Tween 20 in PBS) for one hour. Plates were washed six times with MilliQ water containing 0.05% (v/v) Tween 20 on Biotek 405 LS plate washer equipped with microplate Biostacker 3 (Biotek, Winooski, VT). 50 μL of serially diluted antibody samples (serial dilutions of serum, hybridoma supernatant, or monoclonal antibodies in PBS) were added to each well and incubated for one hour. Unbound antibodies were removed by washing as described above, and 50 μL of secondary goat anti-rabbit IgG HRP or goat anti-mouse IgG (Fc)-HRP conjugate (ThermoFisher Scientific, USA), diluted 1:3,000 in the blocking solution was added to each well for detection bound rabbit or mouse antibody, respectively. Plates were incubated for one hour, washed and 100 μL of TMB substrate (Moss, Pasadena, MD) was added for 15 min to determine bound peroxidase. Optical density (OD) of the samples at 650 nm was measured using an ELISA plate reader (Molecular Devices LLC., San Jose, CA). The titer of each serum sample was designated as the maximum dilution that yielded at least twice the absorbance of the same dilution of the nonimmune control serum.
(§1) The supernatants were screened in a competitive ELISA for the presence of anti-ecstasy compound monoclonal antibodies (mAbs) as follows. 25 μL of the hybridoma supernatant was mixed with equal volume of PBS alone or containing 20 μg/mL inhibitor (MDA or MDMA) were incubated for 1 h in the wells of E1-OVA (55) coated ELISA plates. The plates were washed and the presence of bound mAbs were detected using goat anti-mouse IgG (Fc)-HRP conjugate and TMB substrate as described above. The level of inhibition of mAb/E1-OVA (55) binding in the presence of the inhibitor was estimated using a Percent (%) Inhibition calculated by the below formula:
[formula] • where “OD650 nm w/o Inhibitor” is the binding response of the antibody sample diluted in PBS alone (with no inhibitor), and the “OD650 nm with Inhibitor” is the binding response of the same antibody sample in the presence of 10 μg/mL of inhibitor (i.e., MDA or MDMA). […]

[1] = Competitive ELISA screening of hybridoma supernatants on E1-OVA (55), inhibitor MDA; type: binding; conditions: for E1-OVA (55) Binding, OD650 nm +MDA: hybridoma supernatant in the presence of 10 μg/mL MDA; for % Inhibition by 10 μg/mL of MDA: inhibition of mAb/E1-OVA (55) binding
Description: (§2) Competitive ELISA was used to assess the presence of anti-Ecstasy-class antibodies in animal sera, hybridoma supernatants, and monoclonal antibody (mAb) samples as well as to estimate the level of antibody cross reactivity to amphetamine (Amph) and methamphetamine (mAmph). Antisera and antibody samples were used at the dilution giving a response of about OD=1 at 650 nm (OD650 nm) in an indirect ELISA. Hybridoma supernatants were diluted 1:2 in PBS. (±)-MDMA, (±)-MDA, (±)-amphetamine, and (±)-methamphetamine were used as inhibitors (Cerilliant Corporation, Round Rock, TX). Microtiter ELISA plates were coated and blocked as described above for indirect ELISA. The inhibitors were serially diluted in PBS. 25 μL of the diluted inhibitor was mixed with 25 μL of fixed appropriate antiserum or antibody sample dilution. The mixture was incubated over the E1-OVA (55) solid phase for 1 h. The plates were washed as described above and the bound antibodies were detected with anti-rabbit or anti-mouse IgG HRP-conjugates and TMB substrate as described above.
as §1
(§3) [formula] • where “OD650 nm w/o Inhibitor” is the binding response of the antibody sample diluted in PBS alone (with no inhibitor), and the “OD650 nm with Inhibitor” is the binding response of the same antibody sample in the presence of 10 μg/mL of inhibitor (i.e., MDA or MDMA).

[2] = Competitive ELISA screening of hybridoma supernatants on E1-OVA (55), inhibitor MDMA; type: binding; conditions: for E1-OVA (55) Binding, OD650 nm +MDMA: hybridoma supernatant in the presence of 10 μg/mL MDMA; for % Inhibition by 10 μg/mL of MDMA: inhibition of mAb/E1-OVA (55) binding
Description: as §2, §1, §3

[3] = Prototype EMIT ecstasy assay, cross-reactivity with amphetamine; type: biochemical; conditions: conjugate Compound 58; negative urine pool
[4] = Prototype EMIT ecstasy assay, cross-reactivity with methamphetamine; type: biochemical; conditions: conjugate Compound 58; negative urine pool
[5] = Competitive ELISA of purified antibodies on E1-OVA (55), amphetamine and methamphetamine cross reactivity; type: binding
Description: as §2
(§4) The anti-ecstasy class mAbs were purified from clarified and filtered hybridoma culture supernatants on a recombinant Protein A Sepharose Fast Flow (GE Life Sciences, Boston USA), dialyzed against PBS containing 0.02% sodium azide and stored at 4° C. The purified mAbs were tested for MDA and MDMA reactivity as well as amphetamine (Amph) and methamphetamine (mAmph) cross reactivity in a competitive assay.

[6] = Competitive ELISA of purified antibodies on E1-OVA (55), MDMA and MDA reactivity; type: binding; conditions: 10,000-0.1 ng/mL range of drug concentration
Description: as §2, §4

B1: 178K 1F4 mAb: mouse monoclonal antibody raised against E1-KLH (56); IgG2b, κ; heavy chain SEQ ID NO 85, light chain SEQ ID NO 109 (antibody)
heavy: MNFGLSLIFLALILKGVQCEVQLVESGGDLVRPGGSLKLSCAASGFIFTNYVMSWVRQTPDKRLEWVATINSVGRYTYYTDSVKGRLTISRNNAKNTLYLQMNSLKSEDTAIYYCAGGNNLDFWGQGTTLTVSSAKTTPPSVYPLAPGCGDTTGSSVTLGCLVKGYFPESVTVTWNSGSLSSSVHTFPALLQSGLYTMSSSVTVPSSTWLSQTVTCSVAHPASSTTVDKKLEPSGPISTIKPCPPCKECHKCPAPNLEGGPSVFIFPPNIKDVLMISLTPKVTCVVVDVSEDDPDVQISWFVNNVEVHTAQTQTHREDYNSTIRVVSALPIQHQDWMSGKEFKCKVNNKDLPSPIERTISKIKGLVRAPQVYILPPPAEQLSRKDVSLTCLVVGFNPGDISVEWTSNGHTEENYKDTAPILDSDGSYFIYSKLNMKTSKWEKTDSFSCNVRHEGLKNNYLKKTISRSPGK
light: MRFSAQLLGLLVLWIPGSTADIVMTQAAFSNPVTLGTSASISCRSSKSLLHSNGITYLYWYLQKPGQSPQLLIYQMSNLASGVPDRFSSSGSGTDFTLRISRVEAEDVGVYYCGQDLELPYSFGGGTKLEIKRADAAPTVSIFPPSSEQLTSGGASVVCFLNNFYPKDINVKWKIDGSERQNGVLNSWTDQDSKDSTYSMSSTLTLTKDEYERHNSYTCEATHKTSTSPIVKSFNRNEC
E1-OVA (55) Binding, OD650 nm w/o inhib (E1-OVA (55)): 3.012 OD650 nm
E1-OVA (55) Binding, OD650 nm +MDA [1]: 0.254 OD650 nm
% Inhibition by 10 μg/mL of MDA [1]: 93%
E1-OVA (55) Binding, OD650 nm +MDMA [2]: 0.359 OD650 nm
% Inhibition by 10 μg/mL of MDMA [2]: 88%
Concentrations (μg/mL) of Structurally Related Compounds Equivalent to 500 ng/mL MDMA Cutoffs, (+/−) Amph [3]: 30 µg/mL
Concentrations (μg/mL) of Structurally Related Compounds Equivalent to 500 ng/mL MDMA Cutoffs, (+/−) mAmph [4]: 30 µg/mL
cross reactivity in the presence of 1,000 ng/ml of Amph or mAmph [5]: do not show any significant cross reactivity

B2: 178H 4B1 mAb: mouse monoclonal antibody raised against E1-KLH (56); IgG2b, κ; heavy chain SEQ ID NO 83, light chain SEQ ID NO 107 (antibody)
heavy: MNFGLSLIFLALILKGLQCEVQLVESGGDLVKPGGSLKLSCAASGFTFSRNVMSWVRQTPDKRLEWVATISSGGVHTYYLDSVKGRFTIFRDNAKNTLYLQMNSLQSEDTAMYYCAAGNALDYWGQGTSVTVSSAKTTPPSVYPLAPGCGDTTGSSVTLGCLVKGYFPESVTVTWNSGSLSSSVHTFPALLQSGLYTMSSSVTVPSSTWPSQTVTCSVAHPASSTTVDKKLEPSGPISTINPCPPCKECHKCPAPNLEGGPSVFIFPPNIKDVLMISLTPKVTCVVVDVSEDDPDVRISWFVNNVEVHTAQTQTHREDYNSTIRVVSALPIQHQDWMSGKEFKCKVNNKDLPSPIERTISKIKGLVRAPQVYILPPPAEQLSRKDVSLTCLVVGFNPGDISVEWTSNGHTEENYKDTAPVLDSDGSYFIYSKLDIKTSKWEKTDSFSCNVRHEGLKNYYLKKTISRSPGK
light: B1 light with V23M, A39G, G125S
E1-OVA (55) Binding, OD650 nm w/o inhib (E1-OVA (55)): 3.164 OD650 nm
E1-OVA (55) Binding, OD650 nm +MDA [1]: 0.105 OD650 nm
% Inhibition by 10 μg/mL of MDA [1]: 97%
E1-OVA (55) Binding, OD650 nm +MDMA [2]: 0.093 OD650 nm
% Inhibition by 10 μg/mL of MDMA [2]: 98%
Concentrations (μg/mL) of Structurally Related Compounds Equivalent to 500 ng/mL MDMA Cutoffs, (+/−) Amph [3]: 40 µg/mL
Concentrations (μg/mL) of Structurally Related Compounds Equivalent to 500 ng/mL MDMA Cutoffs, (+/−) mAmph [4]: 40 to 50 µg/mL
relative sensitivity to MDMA and MDA in competitive ELISA [6]: bind MDMA stronger than MDA

B3: 178K 1E11 mAb: mouse monoclonal antibody raised against E1-KLH (56); IgG2b, κ; heavy chain SEQ ID NO 183, light chain SEQ ID NO 185 (antibody)
heavy: MNFGLSLIFLALILKGVQCEVQLVESGGDFVKPGGSLKLSCAASGFTFSNYVMSWVRQTPDKRLEWVATINSGGRYTYYPDSVKGRFTISRDNAKNTLYLQMNSLKSDDTAIYYCSGGNYLDYWGQGTTLTVSSAKTTPPSVYPLAPGCGDTTGSSVTLGCLVKGYFPESVTVTWNSGSLSSSVHTFPALLQSGLYTMSSSVTVPSSTWLSQTVTCSVAHPASSTTVDKKLEPSGPISTIKPCPPCKECHKCPAPNLEGGPSVFIFPPNIKDVLMISLTPKVTCVVVDVSEDDPDVQISWFVNNVEVHTAQTQTHREDYNSTIRVVSALPIQHQDWMSGKEFKCKVNNKDLPSPIERTISKIKGLVRAPQVYILPPPAEQLSRKDVSLTCLVVGFNPGDISVEWTSNGHTEENYKDTAPILDSDGSYFIYSKLNMKTSKWEKTDSFSCNVRHEGLKNNYLKKTISRSPGK
light: B1 light with H51Q, S52R, Y59H, Q75R, D85E, S122T
E1-OVA (55) Binding, OD650 nm w/o inhib (E1-OVA (55)): 3.390 OD650 nm
E1-OVA (55) Binding, OD650 nm +MDA [1]: 0.316 OD650 nm
% Inhibition by 10 μg/mL of MDA [1]: 91%
E1-OVA (55) Binding, OD650 nm +MDMA [2]: 0.301 OD650 nm
% Inhibition by 10 μg/mL of MDMA [2]: 91%
cross reactivity in the presence of 1,000 ng/ml of Amph or mAmph [5]: do not show any significant cross reactivity

B4: 178K 4E11 mAb: mouse monoclonal antibody raised against E1-KLH (56); IgG2b, κ; heavy chain SEQ ID NO 89, light chain SEQ ID NO 113 (antibody)
heavy: B3 heavy with F30L, K62M, D108E, S116A, Y120N
light: B1 light with H51Q, S52R, Q75R, S122T
E1-OVA (55) Binding, OD650 nm w/o inhib (E1-OVA (55)): 1.930 OD650 nm
E1-OVA (55) Binding, OD650 nm +MDA [1]: 0.091 OD650 nm
% Inhibition by 10 μg/mL of MDA [1]: 95%
E1-OVA (55) Binding, OD650 nm +MDMA [2]: 0.088 OD650 nm
% Inhibition by 10 μg/mL of MDMA [2]: 95%
Concentrations (μg/mL) of Structurally Related Compounds Equivalent to 500 ng/mL MDMA Cutoffs, (+/−) Amph [3]: 40 to 45 µg/mL
Concentrations (μg/mL) of Structurally Related Compounds Equivalent to 500 ng/mL MDMA Cutoffs, (+/−) mAmph [4]: 50 to 60 µg/mL
cross reactivity in the presence of 1,000 ng/ml of Amph or mAmph [5]: do not show any significant cross reactivity
